Patent US7393670B2, “Tyrosyl-tRNA synthetase variants” (Japan Science and Technology Agency, priority 2001, dated 2008)

Tests used:
Type in all cases: biochemical
[1] = Aminoacylation reaction, simplified Lloyd's method, inorganic phosphate detected with Biomol green; parameters: key: ***: the aminoacylation reaction was detected by a microplate reader in the reaction at enzyme concentrations of 50 nM; **: 500 nM; *: 5 μM; the activity is high in the order of *** > ** > * > —; conditions: Table 2; 3-iodotyrosine 1 mM; 37° C. for 4 min
Method: (§1) In the first method, Lloyd's method (Nucleic Acids Research, 23:2886-2892, 1995) where inorganic phosphate produced by pyrophosphatase-drived hydrolysis of pyrophosphate which was one of the reaction products of the aminoacylation reactions was quantified was simplified, and the inorganic phosphate was detected using Biomol green (Funakoshi) to carry out the measurement of the aminoacylation reaction.
(§2) Amino acid concentrations were 200 μM and 1 mM for tyrosine and 3-iodotyrosine, respectively.
(§3) The method where the aminoacylation reaction is measured by quantifying inorganic phosphate produced by pyrophosphatase-drived hydrolysis of pyrophosphate which is one of reaction products of the aminoacylation has been described by Lloyd et al. (Nucleic Acids Research, 23:2886-2892, 1995). In one method of the invention, this method was simplified and the aminoacylation reaction was measured by the detection of inorganic phosphate using Biomol green (Funakoshi). Each enzyme obtained was incubated with 0.05 ml of the buffer B containing 1 mM ATP (Seikagaku Corporation), 30 μM purified crude tyrosyl-tRNA, and 100 μM tyrosine or 0.5 mM 3-iodotyrosine at 37° C. for one hour. To stop the reaction, 0.1 ml of Bio mol green was added. Absorbance of its supernatant was measured at 630 nm.

[2] = as above; parameters: key: ***: the reaction could be detected strongly at 25 nM; **: strongly at 250 nM; *: weakly at 250 nM; the activity is high in the order of *** > ** > * > —; conditions: Table 3; 3-iodotyrosine 1 mM; 37° C. for 4 min
Method: as §1, §2, §3

[3] = as above; parameters: key: ***: the aminoacylation reaction was detected by a microplate reader in the reaction at enzyme concentrations of 50 nM; **: 500 nM; *: 5 μM; the activity is high in the order of *** > ** > * > —; conditions: Table 2; tyrosine 200 μM; 37° C. for 4 min
Method: as §1, §2
as §3, with “Each enzyme obtained was incubated with 0.05 ml of the buffer B containing 1 mM ATP (Seikagaku Corporation), 30 μM purified crude tyrosyl-tRNA, and 100 μM tyrosine or 0.5 mM 3-iodotyrosine at 37° C. for one hour.” left out

[4] = Aminoacylation activity by Lloyd's method (release of pyrophosphates); conditions: at 37° C.
Method: In the second method, Lloyd's method (Nucleic Acids Research, 23:2886-2892, 1995) was carried out without alteration.
In the second method, the activity was assayed by Lloyd's method (Nucleic Acids Research, 23:2886-2892, 1995). Each enzyme obtained was incubated with 0.4 ml of the buffer B containing 1 mM ATP (Seikagaku Corporation), 100 μM purified crude tyrosyl-tRNA, 200 μM tyrosine or 3-iodotyrosine at 37° C. for 6 min. The aminoacylation activity was represented as concentrations of released phosphate per min.

[5] = Aminoacylation reaction, simplified Lloyd's method, inorganic phosphate detected with Biomol green; parameters: key: ***: the reaction could be detected strongly at 25 nM; **: strongly at 250 nM; *: weakly at 250 nM; the activity is high in the order of *** > ** > * > —; conditions: Table 3; tyrosine 200 μM; 37° C. for 4 min
Method: as §1, §2
as §3, with “Each enzyme obtained was incubated with 0.05 ml of the buffer B containing 1 mM ATP (Seikagaku Corporation), 30 μM purified crude tyrosyl-tRNA, and 100 μM tyrosine or 0.5 mM 3-iodotyrosine at 37° C. for one hour.” left out

B1: 37V: E. coli TyrRS variant: position 37 Valine, position 195 Glutamine (protein, UniProt P0AGJ9 2-424, looked up, variant Y37V)
Tyrosine--tRNA ligase: ASSNLIKQLQERGLVAQVTDEEALAERLAQGPIALVCGFDPTADSLHLGHLVPLLCLKRFQQAGHKPVALVGGATGLIGDPSFKAAERKLNTEETVQEWVDKIRKQVAPFLDFDCGENSAIAANNYDWFGNMNVLTFLRDIGKHFSVNQMINKEAVKQRLNREDQGISFTEFSYNLLQGYDFACLNKQYGVVLQIGGSDQWGNITSGIDLTRRLHQNQVFGLTVPLITKADGTKFGKTEGGAVWLDPKKTSPYKFYQFWINTADADVYRFLKFFTFMSIEEINALEEEDKNSGKAPRAQYVLAEQVTRLVHGEEGLQAAKRITECLFSGSLSALSEADFEQLAQDGVPMVEMEKGADLMQALVDSELQPSRGQARKTIASNAITINGEKQSDPEYFFKEEDRLFGRFTLLRRGKKNYCLICWK
Aminoacylation activity, 3-iodotyrosine [1]: ***
Aminoacylation activity, 3-iodotyrosine [2]: ***
Aminoacylation activity, Tyrosine [3]: ***
Initial velocity of release of pyrophosphates, 3-iodotyrosine ([4]; 200 μM 3-iodotyrosine): 73 nM PPi/min/nM enzyme
Initial velocity of release of pyrophosphates, Tyrosine ([4]; 200 μM tyrosine): 140 nM PPi/min/nM enzyme
Aminoacylation activity, Tyrosine [5]: ***
